The values that follow come from patent publication US20250251406A1.

In assay [1] the target is IL-17A/F dimer (Homo sapiens (Human)) (UniProt Q16552).
For assay [2], the target named is IL-17A/A dimer (Homo sapiens (Human)) (UniProt Q16552).
In assay [3] the target is IL-17A/F dimer (Homo sapiens (Human)) (UniProt Q16552). The experiment in a line: Alphascreen (protein-protein interaction assay); inhibition of IL17AF with IL-17RA. In general terms: Alpha assays give light when donor and acceptor beads are brought close together.
For assay [4], the target named is IL-17A/A dimer (Homo sapiens (Human)) (UniProt Q16552). As to the kind of experiment: Alphascreen (protein-protein interaction assay); inhibition of IL17AA with IL-17RA.
Assay [5] has as its target IL-17F/F dimer (Homo sapiens (Human)) (UniProt Q96PD4). As to the kind of experiment: Alphascreen (protein-protein interaction assay); inhibition of IL17FF with IL-17RC.
Sequence of UniProt Q96PD4 (Q96PD4 31-163 limits assumed): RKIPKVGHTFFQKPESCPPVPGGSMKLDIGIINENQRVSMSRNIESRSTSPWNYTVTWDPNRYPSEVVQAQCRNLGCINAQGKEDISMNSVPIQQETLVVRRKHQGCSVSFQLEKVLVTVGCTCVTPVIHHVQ

For the substance sonelokimab (VHH), in assay [1], the % inhibition of CCL20 expression (TNF + IL17A/F stimulation) in keratinocytes, SLK 0.1 µg/mL was -75%; the % inhibition of CCL20 expression (TNF + IL17A/F stimulation) in keratinocytes, SLK 1 µg/mL is -53%; the % inhibition of CXCL8 expression (TNF + IL17A/F stimulation) in keratinocytes, SLK 0.1 µg/mL is -61%; the % inhibition of CXCL8 expression (TNF + IL17A/F stimulation) in keratinocytes, SLK 1 µg/mL is -68%. In addition, in assay [2], the % inhibition of CCL20 expression (TNF + IL17A/A stimulation) in keratinocytes, SLK 0.1 µg/mL is -66%; the % inhibition of CCL20 expression (TNF + IL17A/A stimulation) in keratinocytes, SLK 1 µg/mL is -66%; the % inhibition of CXCL8 expression (TNF + IL17A/A stimulation) in keratinocytes, SLK 0.1 µg/mL is -73%; the % inhibition of CXCL8 expression (TNF + IL17A/A stimulation) in keratinocytes, SLK 1 µg/mL was -88%. In assay [3], this substance registered an IC50 of 0.066 nM. This substance came in with an IC50 in assay [4] of 0.039 nM. The IC50 in assay [5] came out at 0.013 nM.

One may read the IC50 as the concentration needed to halve the response being measured. A low value points to higher potency.
